Source: patent US6245545

System: SwaI restriction endonuclease (native) (Staphylococcus warneri)
Assay: cleavage_in_vitro
Conditions: more than 544,000 units in Source-15S fractions 17-19; restriction activity assayed on M13mp19 RF DNA

In the case of M13mp19 RF DNA, the activity is reported as 544000 units.
